Patent publication US20170014486A1

Molecular target: natriuretic polypeptide receptor A (Npra), mouse (mouse) (UniProt P18293)
Experiment: cell-based or functional assay

UniProt P18293, sequence (P18293 29-1057 limits assumed): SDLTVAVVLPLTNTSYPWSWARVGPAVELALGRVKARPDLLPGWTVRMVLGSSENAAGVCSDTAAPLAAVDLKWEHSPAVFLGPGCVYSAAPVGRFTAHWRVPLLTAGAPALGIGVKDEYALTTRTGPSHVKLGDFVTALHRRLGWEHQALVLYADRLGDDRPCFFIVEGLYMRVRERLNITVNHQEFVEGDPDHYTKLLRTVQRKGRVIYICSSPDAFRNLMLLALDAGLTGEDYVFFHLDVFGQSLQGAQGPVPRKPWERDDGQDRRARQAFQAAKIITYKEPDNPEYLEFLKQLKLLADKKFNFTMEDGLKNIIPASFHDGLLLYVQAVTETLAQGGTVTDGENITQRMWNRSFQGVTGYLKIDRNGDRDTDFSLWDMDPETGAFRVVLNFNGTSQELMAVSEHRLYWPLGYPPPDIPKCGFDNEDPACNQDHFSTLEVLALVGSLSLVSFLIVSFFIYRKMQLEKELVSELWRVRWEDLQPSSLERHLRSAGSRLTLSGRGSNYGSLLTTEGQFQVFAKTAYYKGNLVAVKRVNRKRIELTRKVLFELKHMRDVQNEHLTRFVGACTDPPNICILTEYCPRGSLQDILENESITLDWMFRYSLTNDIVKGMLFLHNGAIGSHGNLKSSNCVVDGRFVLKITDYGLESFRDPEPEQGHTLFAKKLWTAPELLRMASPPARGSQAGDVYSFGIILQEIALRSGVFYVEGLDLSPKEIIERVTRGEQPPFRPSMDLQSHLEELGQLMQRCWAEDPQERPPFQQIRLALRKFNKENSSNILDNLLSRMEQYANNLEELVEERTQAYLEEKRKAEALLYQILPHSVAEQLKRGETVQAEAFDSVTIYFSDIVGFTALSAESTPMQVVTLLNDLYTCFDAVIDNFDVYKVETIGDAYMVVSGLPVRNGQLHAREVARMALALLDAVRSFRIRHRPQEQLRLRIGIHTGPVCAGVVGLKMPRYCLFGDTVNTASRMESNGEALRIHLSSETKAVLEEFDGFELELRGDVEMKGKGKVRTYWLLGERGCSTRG

## Nppb-saporin conjugate
  Npra-positive spinal cord neurons eliminated after intrathecal injection (ISH cell counts): 70%
